Here are results for 2 molecules from paper PMC4192059 (Molecular microbiology, 2014).

Assay [1] deals with T1, EspG5 (M. tuberculosis), crystallization construct (M. tuberculosis H37Rv, UniProt O53943 1-300).
T1 sequence: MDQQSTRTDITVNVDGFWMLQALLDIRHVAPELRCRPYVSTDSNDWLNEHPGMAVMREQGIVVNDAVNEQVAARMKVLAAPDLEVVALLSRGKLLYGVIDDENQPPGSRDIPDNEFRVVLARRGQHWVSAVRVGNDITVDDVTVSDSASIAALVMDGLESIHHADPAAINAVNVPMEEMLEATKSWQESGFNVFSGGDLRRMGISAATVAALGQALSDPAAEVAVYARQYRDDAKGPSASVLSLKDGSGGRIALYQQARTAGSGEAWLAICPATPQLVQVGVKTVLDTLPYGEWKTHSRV
Kind of assay: crystal structure.

Assay [2] deals with T2, EspG5 (M. tuberculosis), from His6-SUMO3-EspG5, tag cleaved (M. tuberculosis, UniProt O53943 1-300).
T2 sequence: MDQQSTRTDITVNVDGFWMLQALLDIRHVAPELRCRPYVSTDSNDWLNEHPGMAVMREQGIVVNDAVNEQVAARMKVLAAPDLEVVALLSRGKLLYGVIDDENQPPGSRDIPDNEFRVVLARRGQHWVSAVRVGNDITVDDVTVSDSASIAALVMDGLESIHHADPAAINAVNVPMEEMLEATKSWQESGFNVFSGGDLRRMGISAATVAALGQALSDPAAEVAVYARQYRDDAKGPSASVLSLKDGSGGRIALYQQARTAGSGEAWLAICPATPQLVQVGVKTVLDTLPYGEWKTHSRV
Kind of assay: ITC. (In ITC the heat of successive injections is recorded.)

B1: PPE41 (M. tuberculosis), chain of the crystallized complex (natural protein)
chain: MHFEAYPPEVNSANIYAGPGPDSMLAAARAWRSLDVEMTAVQRSFNRTLLSLMDAWAGPVVMQLMEAAKPFVRWLTDLCVQLSEVERQIHEIVRAYEWAHHDMVPLAQIYNNRAERQILIDNNALGQFTAQIADLDQEYDDFWDEDGEVMRDYRLRVSDALSKLTPWKAPPPIAHSTVLVAPVSPSTASSRTDT
With B1, in assay [1], the binding result is “binds”.

B2: His6-PE25–PPE41 heterodimer (M. tuberculosis), wild type (complex)
chain 1: MSFVITNPEALTVAATEVRRIRDRAIQSDAQVAPMTTAVRPPAADLVSEKAATFLVEYARKYRQTIAAAAVVLEEFAHALTTGADKYATAEADNIKTFS
chain 2: MHFEAYPPEVNSANIYAGPGPDSMLAAARAWRSLDVEMTAVQRSFNRTLLSLMDAWAGPVVMQLMEAAKPFVRWLTDLCVQLSEVERQIHEIVRAYEWAHHDMVPLAQIYNNRAERQILIDNNALGQFTAQIADLDQEYDDFWDEDGEVMRDYRLRVSDALSKLTPWKAPPPIAHSTVLVAPVSPSTASSRTDT
The molecule B2 gave a dissociation constant (Kd) in assay [2] of 48.1 nM. That is a double-digit nanomolar value.

The term Kd denotes the equilibrium constant for the complex coming apart. Low readings indicate a tighter complex, high ones a looser complex.
